One molecule from paper PMC9073860 can be followed below.

The series deals with T1, C-reactive protein (CRP) (human, UniProt P02741 19-224).
T1 sequence: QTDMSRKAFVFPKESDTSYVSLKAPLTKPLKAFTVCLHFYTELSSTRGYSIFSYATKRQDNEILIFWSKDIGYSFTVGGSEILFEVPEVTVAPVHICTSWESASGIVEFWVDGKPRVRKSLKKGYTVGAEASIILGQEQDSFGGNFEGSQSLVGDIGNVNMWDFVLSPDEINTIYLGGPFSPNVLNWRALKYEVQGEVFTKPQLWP
The series is described as follows: competition.

For CGAAGGGGATTCGAGGGGTGATTGCGTGCTCCATTTGGTG (ssDNA, 5'-biotin-(CH2)6) [CRP-aptamer (40-mer)], the binding result was “binds”.
